Reference: patent publication US20190022241A1 (AbbVie / Abbott, published 2019)
One block for each binder: values may come before it.

Legend:
[1] = target: T1, rat SEZ6 on RIN-m5F cells (rat, UniProt Q7TSK2 20-991 (mouse entry)); assay: flow cytometry, RIN-m5F cells, 5 ug/mL antibody
T1 construct: endogenous on RIN-m5F cells; also called rSEZ6
T1 chain: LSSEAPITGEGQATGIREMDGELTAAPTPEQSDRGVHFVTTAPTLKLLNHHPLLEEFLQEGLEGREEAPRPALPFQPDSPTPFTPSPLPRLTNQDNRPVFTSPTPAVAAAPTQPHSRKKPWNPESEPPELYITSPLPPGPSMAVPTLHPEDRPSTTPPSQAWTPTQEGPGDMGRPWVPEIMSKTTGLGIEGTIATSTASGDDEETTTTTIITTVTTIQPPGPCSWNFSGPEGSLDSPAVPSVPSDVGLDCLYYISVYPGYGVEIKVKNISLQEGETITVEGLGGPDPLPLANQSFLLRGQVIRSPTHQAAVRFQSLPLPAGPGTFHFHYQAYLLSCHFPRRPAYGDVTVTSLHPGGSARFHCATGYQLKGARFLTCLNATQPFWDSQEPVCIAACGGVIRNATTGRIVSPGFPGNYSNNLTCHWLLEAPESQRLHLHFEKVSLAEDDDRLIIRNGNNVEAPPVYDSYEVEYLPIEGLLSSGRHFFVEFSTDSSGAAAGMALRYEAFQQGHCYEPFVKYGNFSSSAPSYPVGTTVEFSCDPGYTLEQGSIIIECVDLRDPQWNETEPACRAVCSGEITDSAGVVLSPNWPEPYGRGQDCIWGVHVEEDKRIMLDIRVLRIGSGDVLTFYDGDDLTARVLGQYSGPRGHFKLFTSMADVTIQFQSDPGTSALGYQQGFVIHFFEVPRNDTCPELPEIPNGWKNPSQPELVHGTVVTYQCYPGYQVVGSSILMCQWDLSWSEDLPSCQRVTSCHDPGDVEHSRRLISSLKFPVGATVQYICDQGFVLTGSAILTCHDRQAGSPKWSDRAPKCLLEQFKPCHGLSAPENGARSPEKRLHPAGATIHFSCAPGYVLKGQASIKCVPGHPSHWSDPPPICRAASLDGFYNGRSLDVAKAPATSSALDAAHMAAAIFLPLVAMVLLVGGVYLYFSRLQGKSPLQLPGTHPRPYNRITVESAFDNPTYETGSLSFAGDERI
Protocol: (§1) Briefly 1×10⁵ cells per well of Neuro2a, RIN-5mF, or yeast displaying cynomolgus SEZ6 cells were incubated for 30 minutes with 50 μL PBS (2% FCS) buffer with 5 μg/mL antibody. […] After incubating for 15 minutes cells were washed twice with the PBS buffer and re-suspended in the same with DAPI for flow cytometry analysis of Neuro2a and Rin-m5F or buffer without DAPI for flow cytometric analysis of yeast cells with cSEZ6.

human SEZ6L ECD-His = target: T2, human SEZ6L ECD-His (human, UniProt Q9BYH1 29-955); assay: ELISA on plates coated with SEZ6L protein
T2 construct: whole entry named
T2 sequence: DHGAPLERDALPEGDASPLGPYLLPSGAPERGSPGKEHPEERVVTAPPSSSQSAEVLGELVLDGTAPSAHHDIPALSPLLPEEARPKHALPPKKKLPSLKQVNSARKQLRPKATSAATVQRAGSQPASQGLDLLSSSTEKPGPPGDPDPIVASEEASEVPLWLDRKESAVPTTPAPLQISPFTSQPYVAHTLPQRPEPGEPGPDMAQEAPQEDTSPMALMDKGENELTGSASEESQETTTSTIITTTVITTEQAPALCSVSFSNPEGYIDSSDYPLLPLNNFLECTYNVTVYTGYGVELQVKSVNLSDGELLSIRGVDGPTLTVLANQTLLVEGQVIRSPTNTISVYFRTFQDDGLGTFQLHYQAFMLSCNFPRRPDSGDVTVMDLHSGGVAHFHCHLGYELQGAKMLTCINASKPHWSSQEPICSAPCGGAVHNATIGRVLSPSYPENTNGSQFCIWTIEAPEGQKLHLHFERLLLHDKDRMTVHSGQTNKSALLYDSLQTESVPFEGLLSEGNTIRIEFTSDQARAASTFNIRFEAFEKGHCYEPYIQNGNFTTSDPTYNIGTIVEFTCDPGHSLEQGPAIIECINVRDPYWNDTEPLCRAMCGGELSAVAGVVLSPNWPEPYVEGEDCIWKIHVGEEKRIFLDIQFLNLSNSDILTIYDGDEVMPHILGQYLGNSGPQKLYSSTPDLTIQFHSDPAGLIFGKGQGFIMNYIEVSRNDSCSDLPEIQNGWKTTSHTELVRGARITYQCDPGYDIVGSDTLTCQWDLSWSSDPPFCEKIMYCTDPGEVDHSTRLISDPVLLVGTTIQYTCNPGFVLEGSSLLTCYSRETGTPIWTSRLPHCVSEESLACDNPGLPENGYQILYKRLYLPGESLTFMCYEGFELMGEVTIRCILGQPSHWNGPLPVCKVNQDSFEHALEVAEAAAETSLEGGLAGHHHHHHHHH
Protocol: To determine cross reactivity to family member proteins, SEZ6L and SEZ6L2, an ELISA-based assay was used. Plates were coated with SEZ6, SEZ6L, or SEZ6L2 proteins at 0.2 μg/mL in PBS overnight. After washing with PBS containing 0.05% (v/v) Tween 20 (PB ST), the wells were blocked with 2% (w/v) BSA in PBS (PB SA), 100 μL/well for 1 hour at room temperature. Antibody was then added at 1 μg/mL in 100 μL PBSA for 1 hour at room temperature. After washing with PBST, 100 μL/well HRP-labeled goat anti-mouse IgG diluted 1:2,000 in PBSA for 1 hour at room temperature. […] After developing, an equal volume of 2M H₂SO₄ was added to stop substrate development and analyzed by spectrophotometer at OD 450.

[2] = target: T3, mouse SEZ6 on Neuro2a cells (mouse, UniProt Q7TSK2 20-991); assay: flow cytometry on Neuro2a cells expressing mouse SEZ6
T3 construct: endogenous on Neuro2a cells; also called murine SEZ6; mSEZ6
T3 sequence (Q7TSK2 20-991): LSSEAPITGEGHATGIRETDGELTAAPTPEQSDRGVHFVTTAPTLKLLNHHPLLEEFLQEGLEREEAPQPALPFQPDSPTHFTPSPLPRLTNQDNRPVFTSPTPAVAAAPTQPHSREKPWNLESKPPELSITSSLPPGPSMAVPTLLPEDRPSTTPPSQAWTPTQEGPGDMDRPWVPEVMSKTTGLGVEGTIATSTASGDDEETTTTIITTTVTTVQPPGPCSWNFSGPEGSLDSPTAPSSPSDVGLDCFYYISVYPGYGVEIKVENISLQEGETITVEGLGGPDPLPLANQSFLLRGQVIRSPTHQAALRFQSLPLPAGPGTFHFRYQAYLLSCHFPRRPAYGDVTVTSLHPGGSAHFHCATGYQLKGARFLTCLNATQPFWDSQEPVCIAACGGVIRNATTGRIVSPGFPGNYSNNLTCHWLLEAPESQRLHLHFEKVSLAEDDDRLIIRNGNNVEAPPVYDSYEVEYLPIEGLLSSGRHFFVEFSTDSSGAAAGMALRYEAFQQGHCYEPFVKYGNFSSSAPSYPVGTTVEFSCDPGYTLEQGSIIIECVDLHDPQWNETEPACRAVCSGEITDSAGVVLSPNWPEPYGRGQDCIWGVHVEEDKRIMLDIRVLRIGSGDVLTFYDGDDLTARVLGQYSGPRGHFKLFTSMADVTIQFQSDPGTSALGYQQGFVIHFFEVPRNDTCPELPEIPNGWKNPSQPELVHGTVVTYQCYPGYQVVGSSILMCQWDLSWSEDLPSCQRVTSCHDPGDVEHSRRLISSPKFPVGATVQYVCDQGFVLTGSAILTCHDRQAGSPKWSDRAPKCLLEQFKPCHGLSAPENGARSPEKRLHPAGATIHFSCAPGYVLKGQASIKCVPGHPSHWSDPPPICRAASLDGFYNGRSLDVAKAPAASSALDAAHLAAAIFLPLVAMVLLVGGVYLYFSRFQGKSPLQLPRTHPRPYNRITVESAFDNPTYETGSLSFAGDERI
Protocol: as §1

hSEZ6-ECD-His = target: T4, hSEZ6-ECD-His (human, UniProt Q53EL9 20-925); assay: bio-layer interferometry (ForteBio RED) or surface plasmon resonance (Biacore 2000) on human SEZ6-His; the table does not say which; column Hu Affinity (Kd, nM)
T4 construct: the whole entry is named; also called recombinant SEZ6-His; human recombinant SEZ6-His
Description: Various methods were used to analyze the binding and immunochemical characteristics of selected SEZ6 modulators generated as set forth above.

binding result [1]: binds
binding result (human SEZ6L ECD-His): no binding (tested: 1 µg/mL)
binding result [2]: no binding (tested: 5 µg/mL)
Kd (hSEZ6-ECD-His): 15.1 nM
B1: SC17.34 (antibody, V domains shown)
VH: EVQLQQSGPELVKPGSSVKISCKASGYTFTDYNMDWVKQSHGKRLEWIGYIYPDNGGAGYNQKFKGKATLTVDKSSSTAYMELRSLTSEDSAVYYCSRSITTAWFAYWGQGTLVTVSA
VL: DIKMTQSPSSMYASLGERVTITCKASQDINSYLSWFQQKPGKSPKTLIYRANRLVDGVPSRFSGSGSGQDYSLTISSLEYEDMGIYYCLQYDEFPPTFGGGTKLEIK
notes: murine mAb

binding result [1]: binds
binding result (human SEZ6L ECD-His): no binding (tested: 1 µg/mL)
binding result [2]: no binding (tested: 5 µg/mL)
Kd (hSEZ6-ECD-His): 1.8 nM
B2: SC17.17 (antibody, V domains shown)
VH: EVQLQQSGPEVMKPGASVKMSCKASGYTFTDYNMHWVKQNQGKSLEWIGEINPNIGGTGYNQKFKGKATLTVHKSSSTAYMELRSLTSEDSAVYYCARTYSYYSYEFAYWGQGTLVTVSA
VL: QIVLTQSPAIMSASPGEKVTMTCSASSSVSYMHWYQQKSGTSPKRWIYDTSKLPSGVPARFSGSGSGTSYSLTISSMEAEDAATYYCQQWSSTPPTFGAGTKLELK
notes: murine mAb
